Experimental data from PMC11532494 (Nature Communications, 2024).
pKi: −log10 of the molar value.

Target: AcuC (acetoin-utilization protein C) of Bacillus subtilis (Bacillus subtilis) (UniProt P39067)
Assay: dose-response enzyme inhibition (Fluor-de-Lys assay)

Sequence of AcuC (acetoin-utilization protein C) of Bacillus subtilis (Bacillus subtilis) (P39067 whole entry): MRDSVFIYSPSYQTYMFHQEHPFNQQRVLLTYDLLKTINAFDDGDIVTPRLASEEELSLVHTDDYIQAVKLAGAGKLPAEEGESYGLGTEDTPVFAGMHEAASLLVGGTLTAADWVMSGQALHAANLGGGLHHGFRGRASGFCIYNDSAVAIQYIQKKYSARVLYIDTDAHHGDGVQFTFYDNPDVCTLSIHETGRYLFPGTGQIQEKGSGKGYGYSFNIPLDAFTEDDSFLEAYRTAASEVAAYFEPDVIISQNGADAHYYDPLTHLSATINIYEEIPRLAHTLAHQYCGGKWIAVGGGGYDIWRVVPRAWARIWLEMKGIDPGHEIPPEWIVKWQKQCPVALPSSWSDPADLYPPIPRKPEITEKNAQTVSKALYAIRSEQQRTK

**Q.** apicidin A (peptide) was tested. Which pKi did it give?
**A.** > 7.14
